In US20160108110A1 (Novartis, published 2016):
Positions count from the first letter of the chain named.

T1: Human ANGPTL4(26-406)-FLAG-His6-Avi (human, UniProt Q9BY76 24-406, biotin on the C-terminal Avi tag in the biotinylated preparations (immobilised form in SET, ELISA and Octet))
T1 sequence: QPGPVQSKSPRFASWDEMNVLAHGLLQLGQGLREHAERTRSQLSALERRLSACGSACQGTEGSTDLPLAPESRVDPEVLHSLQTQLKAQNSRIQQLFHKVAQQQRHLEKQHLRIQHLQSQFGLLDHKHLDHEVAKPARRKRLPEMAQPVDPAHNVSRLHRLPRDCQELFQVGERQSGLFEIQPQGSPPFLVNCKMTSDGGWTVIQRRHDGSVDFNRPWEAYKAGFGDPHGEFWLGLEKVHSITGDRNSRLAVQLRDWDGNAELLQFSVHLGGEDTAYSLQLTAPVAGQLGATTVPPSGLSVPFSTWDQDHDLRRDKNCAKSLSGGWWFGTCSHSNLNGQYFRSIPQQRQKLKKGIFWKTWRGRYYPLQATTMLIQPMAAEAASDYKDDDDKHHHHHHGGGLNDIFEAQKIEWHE

B1: MOR022761 (antibody, human IgG1, lambda, V domains shown)
VH: QVQLVQSGAEVKKPGSSVKVSCKASGGTFQSYAISWVRQAPGQGLEWMGGIIPLFGFANYAQKFQGRVTITADESTSTAYMELSSLRSEDTAVYYCARESYDPYAFDVWGQGTLVTVSS
VL: SYELTQPLSVSVALGQTARITCSGDNLGKYSASWYQQKPGQAPVLVIHQDNNRPSGIPERFSGSNSGNTATLTISRAQAGDEADYYCASRAHSMHVVFGGGTKLTVLG
notes: human IgG1
B2: MOR022762 (antibody, human IgG1, lambda, V domains shown)
VH: B1 VH with Q30S
VL: B1 VL
notes: human IgG1
B3: MOR022769 (antibody, human IgG1, kappa, V domains shown)
VH: EVQLLESGGGLVQPGGSLRLSCAASGFTFSSYYLHWVRQAPGKGLEWVSYISGDASSTYYADSVKGRFTISRDNSKNTLYLQMNSLRAEDTAVYYCARERSYAHDHWGQGTLVTVSS
VL: DIQMTQSPSSLSASVGDRVTITCRASQDIYIDLNWYQQKPGKAPKLLIYAASKLQSGVPSRFSGSGSGTDFTLTISSLQPEDFATYYCQQGYFLPQTFGQGTKVEIKR
notes: human IgG1
B4: MOR022771 (antibody, human IgG1, kappa, V domains shown)
VH: EVQLLESGGGLVQPGGSLRLSCAASGFTFSSYWMHWVRQAPGKGLEWVSGISYSGSSTNYADSVKGRFTISRDNSKNTLYLQMNSLRAEDTAVYYCARDSYIYDLHWGFDNWGQGTLVTVSS
VL: B3 VL with Y30S, I31S, D32Y, K53R, G91S, F93T, L94H, Q96Y
notes: human IgG1
B5: MOR022772 (antibody, human IgG1, kappa, V domains shown)
VH: B4 VH with S54D, G55A
VL: B3 VL with Y30S, I31S, D32Y, K53R, G91S, F93T, L94H, Q96Y
notes: human IgG1

These binders were tested against T1, Human ANGPTL4(26-406)-FLAG-His6-Avi (assay: cell-based or functional assay).

Binder | Reversal of human ANGPTL4 inhibition of human LPL EC50
B1 | 11 nM
B2 | 4 nM
B3 | 2 nM
B4 | 4 nM
B5 | 5 nM

What follows are binders tested against T1, Human ANGPTL4(26-406)-FLAG-His6-Avi (assay: SET assay (solution equilibrium titration, MSD), IgG).
Description: SET assays were performed as follows. In a 96-well polypropylene plate, a constant concentration of ANGPTL4 antibody was mixed with different concentrations of non-biotinylated human, cyno, mouse, or rat full-length ANPGLT4 protein, or human ANGPTL4 N-terminal domain protein (5-fold serial dilution) and incubated at 22° C. for 14 hours with constant shaking (300 rpm). On a pre-blocked 384-well streptavidin-coated Meso Scale Discovery (MSD) plate biotinylated ANGPTL4 (full-length human, cyno, mouse, or rat ANGPTL4, or human ANGPTL4 N-terminal domain) protein (1 nM, 15 μL per well) was immobilized and washed thereafter.
The equilibrium binding reactions (15 μL per well) were applied to the MSD plate with immobilized ANGPTL4 and incubated for 20 min at 22° C. The unbound material was removed by washing the plate 3 times with wash buffer, and the captured antibody was detected by adding Sulfo-tagged goat anti-human IgG (Meso Scale Discovery). After washing MSD read buffer T was added and the plate was developed using a Sector Imager 6000 (Meso Scale Discovery). The data were transferred to Microsoft Excel for analysis and plotted using GraphPad Prism v6. The KD values were determined by fitting the data to the following equation: […]
where Bₘₐₓ is the signal when no ANGPTL4 protein is present in solution, CAb is the constant concentration of ANGPTL4 antibody in solution, CAg is the concentration of ANGPTL4 in solution, and KD is the equilibrium dissociation constant.

Binder | Kd
B1 | 0.189 nM
B2 | 0.107 nM
B3 | 0.005 nM
B4 | 0.029 nM
B5 | 0.053 nM
